Experimental data as given in article PMC6662825, “The MTR4 helicase recruits nuclear adaptors of the human RNA exosome using distinct arch-interacting motifs” (Nature Communications, 2019).

Target: T1, GST-MTR4-∆N (human, UniProt P42285 75-1042)
T1 construct: Tag is cleavable with 3C protease; kept for the GST pull-downs; also called GST-tagged MTR4∆N; source: E. coli BL21 star (DE3), purified (Ni-NTA, heparin, SEC); not shown: 6xHis-GST, N-terminal, kept
T1 sequence (looked up): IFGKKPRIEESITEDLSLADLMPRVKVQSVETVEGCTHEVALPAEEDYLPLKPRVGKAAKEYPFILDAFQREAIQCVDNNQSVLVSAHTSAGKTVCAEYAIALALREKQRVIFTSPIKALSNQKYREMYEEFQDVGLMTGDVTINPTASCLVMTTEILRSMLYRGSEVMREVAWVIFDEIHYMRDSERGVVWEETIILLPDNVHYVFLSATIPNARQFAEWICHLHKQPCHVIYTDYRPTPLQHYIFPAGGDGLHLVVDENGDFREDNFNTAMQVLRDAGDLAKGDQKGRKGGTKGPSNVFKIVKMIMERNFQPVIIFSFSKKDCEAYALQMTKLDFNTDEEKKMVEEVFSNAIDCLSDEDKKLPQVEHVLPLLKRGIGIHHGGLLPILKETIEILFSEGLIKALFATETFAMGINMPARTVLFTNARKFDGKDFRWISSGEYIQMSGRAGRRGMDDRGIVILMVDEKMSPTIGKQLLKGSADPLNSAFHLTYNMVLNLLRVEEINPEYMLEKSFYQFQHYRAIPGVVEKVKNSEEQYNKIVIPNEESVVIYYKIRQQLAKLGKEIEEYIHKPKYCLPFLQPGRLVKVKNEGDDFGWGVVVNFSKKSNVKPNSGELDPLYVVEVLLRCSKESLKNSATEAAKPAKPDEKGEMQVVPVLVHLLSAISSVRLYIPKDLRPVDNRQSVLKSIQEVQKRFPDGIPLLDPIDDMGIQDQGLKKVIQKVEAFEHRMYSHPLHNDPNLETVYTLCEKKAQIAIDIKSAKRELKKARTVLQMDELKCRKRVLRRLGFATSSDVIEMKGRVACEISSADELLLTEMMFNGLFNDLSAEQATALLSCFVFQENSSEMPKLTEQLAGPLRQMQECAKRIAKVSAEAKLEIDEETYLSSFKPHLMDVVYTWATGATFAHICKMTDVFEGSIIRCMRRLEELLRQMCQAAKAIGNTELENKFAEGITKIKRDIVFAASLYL
Assay: pull-down; GST-tagged MTR4 constructs as bait, Trx-NVL constructs as prey, glutathione sepharose; 10 μM GST-MTR4∆N with 20 μM Trx-NVL constructs; 50 mM Hepes pH 7.5, 150 mM NaCl, 5% glycerol, 0.05% NP40, 1 mM DTT, 30 min at 4 °C; SDS-PAGE, Coomassie
Conditions: both partners purified

binding result: binds
B1: Trx-NVL^167–216 (domain or fragment, human, UniProt O15381 167-216, looked up)
chain: KDSEGGWFIDKTPSVKKDSFFLDLSCEKSNPKKPITEIQDSKDSSLLESD
notes: source: E. coli BL21 star (DE3), purified (Ni-NTA, SEC); not shown: 6xHis-Trx, N-terminal, kept
